Earlier results as cited in paper PMC5013049.

Assays:
[1] = molecular target: ExsD (Pseudomonas aeruginosa) (UniProt Q9I321); experiment: ITC
[2] = molecular target: ExsE (Pseudomonas aeruginosa) (UniProt Q9I322); experiment: ITC
Chain of UniProt Q9I322 (Q9I322 whole entry): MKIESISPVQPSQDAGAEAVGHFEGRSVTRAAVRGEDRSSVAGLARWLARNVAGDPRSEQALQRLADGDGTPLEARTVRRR

Chain of UniProt Q9I321 (Q9I321 whole entry): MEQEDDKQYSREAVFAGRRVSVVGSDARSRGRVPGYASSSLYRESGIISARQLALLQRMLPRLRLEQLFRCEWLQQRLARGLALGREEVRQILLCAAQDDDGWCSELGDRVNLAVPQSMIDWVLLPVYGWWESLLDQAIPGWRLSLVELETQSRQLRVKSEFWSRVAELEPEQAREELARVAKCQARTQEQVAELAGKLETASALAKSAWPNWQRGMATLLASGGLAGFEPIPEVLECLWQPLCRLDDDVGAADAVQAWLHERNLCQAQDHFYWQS

## ExsC (from UniProt P26995)
[1]
  Kd: 18 nM
[2]
  Kd: 1 nM
